Measured values from the DeepSol protein solubility set.

Experiment: soluble on expression in E. coli; label from the status in PepcDB or PDB records

Sequence | soluble on expression in E. coli
MKITVIGAGNVGATTAFRLAEKQLARELVLLDVVEGIPQGKALDMYESGPVGLFDTKVTGSNDYADTANSDIVIITAGLPRKPGMTREDLLMKNAGIVKEVTDNIMKHSKNPIIIVVSNPLDIMTHVAWVRSGLPKERVIGMAGVLDAARFRSFIAMELGVSMQDINACVLGGHGDAMVPVVKYTTVAGIPISDLLPAETIDKLVERTRNGGAEIVEHLKQGSAFYAPASSVVEMVESIVLDRKRVLPCAVGLEGQYGIDKTFVGVPVKLGRNGVEQIYEINLDQADLDLLQKSAKIVDENCKMLESTIG | soluble
MNLVETAQAIKTGKVSLGIELGSTRIKAVLITDDFNTIASGSYVWENQFVDGTWTYALEDVWTGIQQSYTQLAADVRSKYHMSLKHINAIGISAMMHGYLAFDQQAKLLVPFRTWRNNITGQAADELTELFDFNIPQRWSIAHLYQAILNNEAHVKQVDFITTLAGYVTWKLSGEKVLGIGDASGVFPIDETTDTYNQTMLTKFSQLDKVKPYSWDIRHILPRVLPAGAIAGKLTAAGASLLDQSGTLDAGSVIAPPEGDAGTGMVGTNSVRKRTGNISVGTSAFSMNVLDKPLSKVYRDIDIVMTPDGSPVAMVHVNNCSSDINAWATIFHEFAARLGMELKPDRLYETLFLESTRADADAGGLANYSYQSGENITKIQAGRPLFVRTPNSKFSLPNFMLTQLYAAFAPLQLGMDILVNEEHVQTDVMIAQGGLFRTPVIGQQVLANALNIPITVMSTAGEGGPWGMAVLANFACRQTAMNLEDFLDQEVFKEPESMTLSPEPERVAGYREFIQRYQAGLPVEAAAGQAIKYLEHHHHHH | soluble
MSDAQGNTLTEEELAMLRAGDEENDNTDTIMVIRVPNDGSSATAVSIPRDTYIHDDDYGNMKINGVYGAYKDARRAELMEQGFTNESELETRAKDAGREGLIDAVSDLTGITVDHYAEVGLLGFVLLTDAVGGVEVCLNNAVDEPLSGANFPAGRQTLGGSDALSYVRQRHDLPRGDLDRIVRQQSYMASLVNQVLSSGTLTNPAKLSALADAVTRSVVIDEGWEIMSFATQLQNLAGGNVTFATIPVTSIDGTGDYGESVVTIDVNQVHAFFQEALGEAEPAPEDGSDDQSADQAPDLSEVEVHVLNASYVEGLANGIAAQLQELGYSIAETGNAAEGLYYESQILAAEEDSAKALAISEALGGLPIVANSSLDDNTVIVVSAGDYAGPTAEANALEHHHHHH | soluble
DHFFELMGTTTEQAYELVDLHPAYRLFPEGSPALDVDSGVGNVATLFDALHPGAGKKVQRYLRNATDVYHLSLRHFLYTTFSNPRDFLRADILRRLPYLARLLSSSLDTWVRNRFPHPILRQILSYPAVFLSTQPTQAPALYSLMSHTDLVEGVHYPRGGFAAIMSAIEKIDREAGVEFYYEHEVTDITIESGRACGITAAGPHGTSTFNADVVVSAADLHHTETRLLPPHLRSYPENYWSKRNPGLGTVLIMLGVRGHLPELAHHNLLFSKDWDPDFAAVYSGPHPSRPLGASQSIYISKTSATDSDAAPEGHENLFILVPVPANDALGHGNTYHHTASPRVEEITRATIAQIATWTGISDLDERIVVTKTIGPADFSERYHAWSSGAIGPAHTLMQSAFFRGKNMASKVKGLYYAGGTTVPGVGVPMCLISAENVITRIKAE | not soluble
MFFKRGKILSAGRLNKKSLGIVMLLSVGLLLAGCSGSKSSDTGTYSGSVYTVKRGDTLYRISRTTGTSVKELARLNGISPPYTIEVGQKLKLGGAKSSSITRKSTAKSTTKTASVTPSSAVPKSSWPPVGQRCWLWPTTGKVIMPYSTADGGNKGIDISAPRGTPIYAAGAGKVVYVGNQLRGYGNLIMIKHSEDYITAYAHNDTMLVNNGQSVKAGQKIATMGSTDAASVRLHFQIRYRATAIDPLRYLPPQGSKPKC | not soluble
MGSDKIHHHHHHMILSVSRRTDIPAFYSEWFFNRLKEGFVYVINPFNERKVSKVELNKETVDLFVFWTKDAEPMLKRLDELNEFKYYFQFTITSYRNDVERMTRKKKDIIDTFRILSKKIGKEKIIWRYDPIFLNDFYTKEYHYRWFERFCDKLEGYTDKCIISFLDLYKKTEINTRCLNIHKMDEKSMRQVAKQLSIIANKHNIIIETCSEGIDLSDYGIKKGSCIDKNLISKIIDFGVELKKDNNQRELCGCVKSVDIGQYNTCKHHCLYCYANFNEKLLNDSILKYNPKAPTLAYTLKGDEKITVREMESIKGNKQKQLDLFKNIKQGE | not soluble
SSLCERAASGSALLWPRVLLFGDSITQFSFQQGGWGSLLADRLVRKCDVLNRGFSGYNTRWAKIILPRLIRKGPGMENPVAVTIFFGANDSSLKDENPKQHVPLDEYSANLRDMVQYLRSVDVPRERVILITPPPLCEAAWEKECVLKGCKLNRLNSVVGEYANACLQVARDCGTDVLDLWTLMQKDSQDFSSYLSDGLHLSPMGNEFLFLNLCPLLDKKVSSLPWLLPYWKDVEEAKPELSLLGDGDY | soluble
MIKVKEDKNEQVKKRWGDKPYYSLNYFLREKFQDKVFKISLDAGFSCPNRDGTISRGGCMFCSERGSGDFAGNRKFSISTQFEDIKDMMKNKWKNGKYIAYFQAYTNTYAPIKVLREKYSEAISKDGVVGLAIATRPDCLSEEVLDLIQEFSKRIYVWVELGLQTANDKVAKVINRGYDTIVFDDAVKKLRERKIDVVVHTIFGLPGEKPKDMLSTIDYVAHKEVQGIKIHLLHLMRGTPLVELYNNGQLTFMSEEEYVETVCRAITMLPQNIV | not soluble
MMAARLLGTSSRIFKLNKHLHTSKVAFMPVVQFKLSDIGEGIAEVQVKEWYVKEGDTISQFDKVCEVQSDKAAVTISCRYDGIVKKLYHEVDGMARVGQALIDVEIEGNVEEPEQPKKEAASSSPEAPKSSAPKAPESAHSEGKVLATPAVRRIAIENKIKLAEVRGTGKDGRVLKEDVLKFLGQVPADHTSGSTNIRTTHQAPQPSSKSYEPLKEDVAVPIRGYTRAMVKTMTEALKIPHFGYNDEINVDSLVKYRAELKEFAKERHIKLSYMPFFIKAASLALLEYPSLNSTTDEKMENVIHKASHNICLAMDTPGGLVVPNIKNCEQRSIFEIAQELNRLLEAGKKQQIKREDLIDGTFSLSNIGNIGGTYASPVVFPPQVAIGAIGKIEKLPRFDKHDNVIPVNIMKVSWCADHRVVDGATMARFSNRWKFYLEHPSAMLAQLK | not soluble
MTEKHKTMGKFKVIVLAGTAGTGKSTIAGELIHEFKDIYPDLKFIEGDDLHPPANVEKMTRGIPLNDDDRWDWLKKVAVESTKAAASTKEHLSIVACSSLKKKYRDLIRHTCPESEFHFIFLYASKIEVLKRLKTRKGHFMKADMMESQFRDLELPDINDETDCDIVPLDFKTFYQIEKDVIQVVKSKVLNIE | not soluble
NKNFTWTSNFNLTYQRALVDKLPEGKDIQYGDGEMYLHREGESMYTFYLPEWKGVNPETGLGEFWLDPEDHSKGVVNDYSEAGKGIVGKALPDVIGGFSNTFTYKDFDLSFLITYQFGGDMFDYPGYFSHHDGVRIGSMNLSEDVAGNYWKNPGDKVDNPMPIYANPYRWDRFSSRTIKSTDNIRLREMTVGYTLPVLKKHISNFRIYFRANNLAMLWSKTKNIDPDVAINGYRQADTPALRSCVFGINIKL | not soluble
MPKKFASENPKVTAARDRKATAKKDEADKKAKATEDAKWVDNDKLNNRKMQRKEDDEKKREEALRRKEENRKLAEEEMSSLGNKKPAGAATQKVTRAHIHIRKEDEERINRELEEKRKQEAQKIEVAGDLLVENLNKLEVEEGEARNVDDALKVLGEEKALDDDKHPEKRMRAAYLAFEEARLPELKLNHPTFRLSQLKQILKKEWQKSPENPLNARLLALNS | soluble
MPVETREISVTAKEDCGIVDITGIVSEEVEKSEIKNGTVTVFCVGSTGAISTMEFESNLSKDISEILDKLIPLNEDYHHHKTWGDFNGGSHLRSFLLGPSLTVPFVEKKLTLGTWQQIVYINFDRIEKVRKIVLQIIGDLLEHHHHHH | soluble
MSLEQLNERTVLEYVEKTDLRKSILGDGKLSAQIISEGNVNLIFRICNIENGNSVILKQALPYAWRYPDFKMPVDRQRIEYETLSIESQYAPDYVPKIYFYDNKSHVLVIEDLKELKVMREALIDGEIFPKVAEHIGIFMAKTLFYTSDLYLSSGKKKEMVINFSNPVLCKVQEDLVFTQPYIDHPNNKWSKPLDEIVKKIHQDDKIRGEIFYFKELYMTKSQALIHNDLHTGSIMLNEKTTKVIDPEFAFYGPMAHDIGTYFANLAIAYAAQEAHRVEPGTRNVYREWIAESFEETWNVFQQRFLNAWEKDSNGEWPSESYRENYMLRLLKESAGFGAAEIFRRTIGMAHVHDFWTIKDENIRAKSESIALYIAINWINMWKDVEKIQDLSQVMKNSKPLEGHHHHHH | soluble
MEGLNVLVTGSTCGLGLHTAKILFKKGANVILTCRDEIRGRHAVESLLSGVSQEQSQKEAERIHLFTLDVTNYNSICNFTDEISRMFKYLHVIINNAGIMGMPFELSVDGIEMHFATNVFGHYVVVERLLPLLLKTDRPDFKSRVIVVSSGLYRNAEAIPQVSKLLGQKTYDYSPKQAYAFSKLANCLYTGALSKMLEPHNVGVYCVRPGFVNGTELGRETHWILRALAAPIIWFIAKTLEQGCETIVYLAETSGNQLKNGSMYYERKEEAYNEMVEVTSIRQVWAILRHLEDTVWKRNTQMTDEQRNHGEMVRELLNESLIV | not soluble
MPKSLYNYHEFIHLSHDGRIPFEKIEVPKNAILLNNSADLDNYVYLIIDGYVALFLNDGKEQPKIYSIQGEGAFLNYFTLLDHSINRFRYKTLSKCFLYRYSKLDIEYFLSMFPENFGFQFFIMKNQTTHIYFKSLMASSPASEKLMLTFSNLARLHGIPTEDDTVILPPAIKTSHLLSYSNLSKSCFYKDLQYLKTTNQIEKQDNSWIIHNKELNLMLQNGETYI | not soluble
VGGQVRIAANTSSITQFLPEDLAGFMQRHPAVRIHLEEQNSSDIVTAVAENRADVGIFADRTPAAGLTTVPYRLDELVLITPPRHPLAARAQVAFADTLDCDYVGLPPATSLATRLADESARLDKSIRLRIQVRSFDAICRMVVAT | not soluble
MLIAVPLDDTNFSENLKKAKEKGADIVELRVDQFSDTSLNYVKEKLEEVHSQGLKTILTIRSPEEGGREVKNREELFEELSPLSDYTDIELSSRGLLVKLYNITKEAGKKLIISYHNFELTPPNWIIREVLREGYRYGGIPKIAVKANSYEDVARLLCISRQVEGEKILISMGDYGKISRLAGYVFGSVITYCSLEKAFAPGQIPLEEMVELRKKFYRL | soluble
MENTETLIVEQLKIGNENAYRYIYDHHYALLCYVANGYLKDQFLSETIVGDTIFHLWEIRETLDISVSIRSYLLRAVRNRCINYLNSEREKREIAFSALMPDEITDDKIILSDSHPLGILLERELENEIYKAIDKLPDECRRVFAKSRFEGKSYEEISGELGISINTVKYHIKNALASLHAHLSKYLISLLLFFFR | not soluble
MGSDKIHHHHHHMNVLLSRKDTIRFLILSELMVNPECNQRDIAKKLGLTPQAISEHFKEMVSEGFINVVHKGYYEVTRKGEEWMSRNLIDLHLFSEELLKKIYSKTVVAIAKGRIAENDSVRYWFGDGYIFAERSAKGNGVALTSAEDGEDVLIKPTGSFEPPEKGEIIIVKVPGVAEGGSRKVDLDSFRELVKSRPTSIVVAIGIEALVTCRKIRVEPIFFGAKEVCIEAAHHGSGVIVACTESMLNDLLRSLIDEGLEFEIKEFVKAT | not soluble
